Measurements from patent publication US20220403048A1, “BINDING MOLECULES TO ARGINASE II [ARG2]” (Cancer Research Technology Limited, priority 2019, published 2022).

Experiments:
[1] = biological target: T1, trimeric human ARG2 (Homo sapiens, UniProt P78540); experiment: Human trimeric ARG2 enzyme inhibition assay (urea production); type: biochemical; conditions: clones in scFv format, FIG. 9; read-out: Trimeric human ARG2 EIA IC50
T1 construct: human ARG2 (aa23-354); His10 (C); made in house; host or cells: E. coli BL21 (DE3)
T1 sequence (P78540 23-354): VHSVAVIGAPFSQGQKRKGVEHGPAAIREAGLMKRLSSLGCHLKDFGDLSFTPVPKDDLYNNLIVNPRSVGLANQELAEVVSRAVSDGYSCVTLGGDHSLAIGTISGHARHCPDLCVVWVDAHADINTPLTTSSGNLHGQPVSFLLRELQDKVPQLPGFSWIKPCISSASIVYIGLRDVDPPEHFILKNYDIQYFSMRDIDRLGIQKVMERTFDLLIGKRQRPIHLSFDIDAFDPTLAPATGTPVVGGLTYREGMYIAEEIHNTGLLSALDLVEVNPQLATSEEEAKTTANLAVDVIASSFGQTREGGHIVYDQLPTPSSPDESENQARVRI
Description: Unpurified anti-ARG2 scFv fragments from periplasmic preparations were screened in an ARG2 enzyme inhibition assay using a Pherastar plate reader (BMG Labtech, Germany). In this assay, the ability of unpurified scFv to inhibit the enzymatic activity of trimeric ARG2 was determined by measuring the production of urea, the product of L-arginine turnover by ARG2.
Selection outputs were screened as unpurified bacterial periplasmic extracts containing scFv, prepared in 200 mM TES buffer pH 7.4, 0.5 mM EDTA and 0.5 M sucrose. 10 μl of unpurified scFv were added to a Greiner Bio-One® 384 well assay plate (Greiner Bio-one, UK; cat: 781901). This was followed by the addition of 5 μl of 1.6 μg/ml trimeric human ARG2 that had been diluted in 40 mM MnCl2, 100 mM tris-HCl, pH7.4 (4× enzyme buffer). […]
Urea was detected by the simultaneous addition of equal volumes of O-Phthaldialdehyde (1.5 mM O-Phthaldialdehyde, 7% H2SO4, 0.03% Brij L23) and N-(1-Napthyl)ethylenediamine (1.66 mM N-(1-Napthyl)ethylenediamine, 81 mM Boric acid, 21% H2SO4, 0.03% Brij L23) followed by an 18 minute incubation at room temperature before the colorimetric product was quantified on the Pherastar by measuring absorbance at 505 nm. […]
Data were analysed by calculating % maximum (max) control for each sample using the 505 nm absorbance data. % max control was determined according to equation 2. […]
IC50 values were determined by testing a dilution series of the purified scFv, prepared in TBS, in the ARG2 enzyme inhibition assay described in section 1.5, substituting the unpurified scFv periplasmic preparation with the purified scFv.
Background control wells were defined for each plate by the omission of substrate. […] Data were analysed by calculating % maximum (max) control for each sample. % max control was determined according to equation 1 detailed in section 1.5. […]
Data were again analysed by calculating % Max control values for each sample. […]

[2] = biological target: T2, biotinylated recombinant human trimeric ARG2 enzyme (Homo sapiens, UniProt P78540, E275H/R327K); experiment: C0020187 IgG epitope competition HTRF assay; type: binding; conditions: clones in scFv format, FIG. 8; read-out: 18° IgG epitope competition assay IC50
T2 construct: His10 (after a GGG linker) (C); made in house; host or cells: E. coli BL21 (DE3)
T2 sequence (P78540 with tags, fused parts or gaps E275H/R327K): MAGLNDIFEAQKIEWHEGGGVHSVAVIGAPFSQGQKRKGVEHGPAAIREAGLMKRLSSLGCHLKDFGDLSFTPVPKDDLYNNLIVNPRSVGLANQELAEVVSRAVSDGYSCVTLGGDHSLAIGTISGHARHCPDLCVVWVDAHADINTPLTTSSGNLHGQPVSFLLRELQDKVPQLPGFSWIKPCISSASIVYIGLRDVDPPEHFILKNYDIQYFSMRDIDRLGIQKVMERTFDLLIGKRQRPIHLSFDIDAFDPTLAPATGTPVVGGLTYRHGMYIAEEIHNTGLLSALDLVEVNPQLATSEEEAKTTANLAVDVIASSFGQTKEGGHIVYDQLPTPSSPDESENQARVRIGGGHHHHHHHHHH
Excerpt: Two thousand and twenty four scFv chosen at random from selection rounds 3 and 4 of the targeted mutagenesis approach described in section 2.2, 2.3 and 2.4 were expressed in E. coli to produce unpurified periplasmic scFv. Those scFv capable of competing with C0020187 IgG for binding to recombinant human trimeric ARG2 enzyme (i.e., those scFv that bind at or near the epitope bound by C0020187 IgG) were elucidated in a competition format assay, using the HTRF™ platform. […]
A ‘Maximum’ binding signal was determined by analysing the binding of C0020187 IgG to biotinylated recombinant human trimeric ARG2 enzyme in the absence of competitor scFv. […] Finally, a ‘Background’ signal was determined by analysing the fluorescence generated in the absence of C0020187 IgG.
Unpurified periplasmic scFv were supplied in sample buffer consisting of 200 mM tris base, pH 7.4, 0.5 mM EDTA, and 0.5 M sucrose. […] Assay plates were sealed and then incubated overnight at room temperature in the dark, prior to measuring time-resolved fluorescence at 620 and 665 nm emission wavelengths on a fluorescence plate reader.
Data were analysed by calculating % Delta F values for each sample. % Delta F was determined according to equation 1. […]
Data were again analysed by calculating the % Delta F and % Control binding values for each sample. […]

B1: C0021142: anti-ARG2 antibody, VH SEQ ID NO: 232, VL SEQ ID NO: 237 (antibody, listed as Homo sapiens, V domains shown)
VH: EVQLLESGGGLVQPGGSLRLSCAASGFTFSSYAMSWVRQAPGKGLEWVSAHTHSPGSTYYADSVKGRFTISRDNSKNTLYLQMNSLRAEDTAVYYCARLRADLGLYMDLWGRGTLVTVSS
VL: QSVLTQPPSVSAAPGQKVTISCSGSSSNIGNHYVSWYQQLPGTAPKLLIYDNSERPSGVPDRFSGSKSGTSATLGITGLQTGDEADYYCGTWDSSLSALVFGGGTKLTVL
modifications: C0021142
- IC50 [1]: 97.6 nM
- IC50 [2]: 57.8 nM
